According to US11702475B2, “Cysteine engineered fibronectin type III domain binding molecules” (Janssen Biotech, Inc., priority 2013, dated 2023):
Residue numbers refer to the chain shown, from its start. In names and notes the source's numbering stands.

How the values were obtained:
[1] = Thermal stability of cysteine-NEM conjugates by DSC; format: physicochemical; conditions: for First Scan Tm: DSC 25-100 °C, 1 °C per minute; for Second Scan Tm: second identical scan
Experimental: The thermal stability of cysteine-NEM conjugates was assessed by differential scanning calorimetry (DSC). The only the conjugates tested were those determined to express at high levels, conjugate efficiently, and retain EGFR binding. Additionally, cysteine variants within the BC and FG loops were excluded. Stability data was generated by heating a 400 μL aliquot of the variant from 25° C. to 100° C. at a scan rate of 1° C. per minute in a VP-DSC instrument (MicroCal). A second identical scan was completed on the sample in order to assess the reversibility of thermal folding/unfolding. Data was fitted to a 2-state unfolding model in order to calculate the melting temperature (Table 10).

[2] = Analytical size exclusion chromatography (percent monomer); format: physicochemical; conditions: NEM-conjugated cysteine variants; SEC, Abs280 monomer region 5.5-6 minutes vs oligomer region 4-5.3 minutes
Experimental: Size exclusion chromatography was used to determine the aggregation state of the FN3 domains binding EGFR. Aliquots (10 μL) of each purified FN3 domain were injected onto a Superdex 75 5/150 column (GE Healthcare) at a flow rate of 0.3 mL/min in a mobile phase of PBS pH 7.4. Elution from the column was monitored by absorbance at 280 nm.
The percent monomer for each protein was determined by integrating the Abs280 signal and comparing the peak in the monomer region (5.5-6 minutes) to the peaks in the oligomer region (4-5.3 minutes).

[3] = tested on: EGFR-overexpressing human tumor cell line H1573; test: Cytotoxicity assay in H1573 cells; format: cell-based; conditions: cysteine variants conjugated to VC-MMAF, Cell TiterGlo at 70 hours, read-out: IC50
Experimental: Cell killing was assessed by measuring viability of the EGFR-overexpressing human tumor cell line H1573 following exposure to the cysteine variant-cytotoxin conjugates. Cells were plated in black-well, clear bottomed, tissue culture-treated plates (Falcon 353219) at 7000/well in 100 μL/well of phenol red free RPMI media (Gibco 11835-030) with 5% fetal bovine serum (Gibco). Cells were allowed to attach overnight at 37° C. in a humidified 5% CO2 atmosphere. Medium was aspirated from 96-well plate and cells were treated with 50 uL of fresh media and 50 uL of 2× inhibitor made up in fresh media. Cell viability was determined by an endpoint assay with Cell TiterGlo (Promega) at 70 hours. IC50 values were determined by fitting data to the equation for a sigmoidal dose response with variable slope using GraphPad Prism 5 (GraphPad Software). Table 11 reports IC50 values obtained from analysis of the CellTiter Glo data.
Conjugates consisting of ECB147 cysteine variants, 83v2-cys, or Tencon-cys linked to a cytotoxic tubulin inhibitor from the auristatin family (FIG. 2) were tested for target-dependent cytotoxicity in cancer cells. The inhibitor was linked to the cysteine-containing protein via a non-cleavable PEG4 linker or an enzyme-cleavable valine-citrulline or valine-lysine linker. Cell killing was assessed by measuring viability of the EGFR-overexpressing human tumor cell lines H1573 and A431 as well as the EGFR-negative tumor cell line MDA-MB-435 following exposure to the protein-cytotoxin conjugates using the procedure described in Example 4.

B1: L32C: cysteine variant of P54AR4-83v2; NEM and VC-MMAF conjugates (conjugate)
chain: LPAPKNLVVSEVTEDSARLSWDDPWAFYESFCIQYQESEKVGEAIVLTVPGSERSYDLTGLKPGTEYTVSIYGVHNVYKDTNMRGLPLSAIFTT
modifications: left off: small tags and cut ends
notes: cysteine variant of P54AR4-83v2; NEM and VC-MMAF conjugates
- First Scan Tm [1]: 71 °C
- Second Scan Tm [1]: 70 °C
- Percent monomer [2]: 100%
- IC50 [3]: 2.92 nM

B2: Y72C: cysteine variant of P54AR4-83v2; NEM and VC-MMAF conjugates (conjugate)
chain: B1 chain with C32L, Y72C
modifications: left off: small tags and cut ends
notes: as for B1
- First Scan Tm [1]: 70 °C
- Second Scan Tm [1]: 69 °C
- Percent monomer [2]: 100%
- IC50 [3]: 1.85 nM

B3: V74C: cysteine variant of P54AR4-83v2; NEM and VC-MMAF conjugates (conjugate)
chain: B1 chain with C32L, V74C
modifications: left off: small tags and cut ends
notes: as for B1
- First Scan Tm [1]: 68 °C
- Second Scan Tm [1]: 67 °C
- Percent monomer [2]: 100%
- IC50 [3]: 3.13 nM

B4: S30C: cysteine variant of P54AR4-83v2 (SEQ ID NOS: 196 and 234); NEM and VC-MMAF conjugates (conjugate)
chain: MLPAPKNLVVSEVTEDSARLSWDDPWAFYECFLIQYQESEKVGEAIVLTVPGSERSYDLTGLKPGTEYTVSIYGVHNVYKDTNMRGLPLSAIFTT
modifications: NEM or vcMMAF conjugate; EGFR binding FN3 domain
notes: NEM and VC-MMAF conjugates
- First Scan Tm [1]: 71 °C
- Second Scan Tm [1]: 71 °C
- Percent monomer [2]: 94%
- IC50 [3]: 0.78 nM

B5: G60C: cysteine variant of P54AR4-83v2 (SEQ ID NOS: 207 and 245); NEM and VC-MMAF conjugates (conjugate)
chain: B4 chain with C31S, G61C
modifications: NEM or vcMMAF conjugate; EGFR binding FN3 domain
notes: NEM and VC-MMAF conjugates
- First Scan Tm [1]: 66 °C
- Second Scan Tm [1]: 66 °C
- Percent monomer [2]: 100%
- IC50 [3]: 1 nM

B6: G64C: cysteine variant of P54AR4-83v2 (SEQ ID NOS: 209 and 247); NEM and VC-MMAF conjugates (conjugate)
chain: B4 chain with C31S, G65C
modifications: NEM or vcMMAF conjugate; EGFR binding FN3 domain
notes: NEM and VC-MMAF conjugates
- First Scan Tm [1]: 70 °C
- Second Scan Tm [1]: 70 °C
- Percent monomer [2]: 100%
- IC50 [3]: 0.36 nM

B7: T48C: cysteine variant of P54AR4-83v2 (SEQ ID NOS: 203 and 241); NEM and VC-MMAF conjugates (conjugate)
chain: B4 chain with C31S, T49C
modifications: NEM or vcMMAF conjugate; EGFR binding FN3 domain
notes: NEM and VC-MMAF conjugates
- First Scan Tm [1]: 72 °C
- Second Scan Tm [1]: 72 °C
- Percent monomer [2]: 90%
- IC50 [3]: 0.59 nM

B8: R54C: cysteine variant of P54AR4-83v2 (SEQ ID NOS: 205 and 243); NEM and VC-MMAF conjugates (conjugate)
chain: B4 chain with C31S, R55C
modifications: NEM or vcMMAF conjugate; EGFR binding FN3 domain
notes: NEM and VC-MMAF conjugates
- First Scan Tm [1]: 65 °C
- Second Scan Tm [1]: 65 °C
- Percent monomer [2]: 96%
- IC50 [3]: 0.37 nM

B9: Q34C: cysteine variant of P54AR4-83v2 (SEQ ID NOS: 197 and 235); NEM and VC-MMAF conjugates (conjugate)
chain: B4 chain with C31S, Q35C
modifications: NEM or vcMMAF conjugate; EGFR binding FN3 domain
notes: NEM and VC-MMAF conjugates
- First Scan Tm [1]: 75 °C
- Second Scan Tm [1]: 74 °C
- Percent monomer [2]: 97%
- IC50 [3]: 0.74 nM

B10: S38C: cysteine variant of P54AR4-83v2 (SEQ ID NOS: 198 and 236); NEM and VC-MMAF conjugates (conjugate)
chain: B4 chain with C31S, S39C
modifications: NEM or vcMMAF conjugate; EGFR binding FN3 domain
notes: NEM and VC-MMAF conjugates
- First Scan Tm [1]: 65 °C
- Second Scan Tm [1]: 65 °C
- Percent monomer [2]: 93%
- IC50 [3]: 0.76 nM

B11: K40C: cysteine variant of P54AR4-83v2 (SEQ ID NOS: 199 and 237); NEM and VC-MMAF conjugates (conjugate)
chain: B4 chain with C31S, K41C
modifications: NEM or vcMMAF conjugate; EGFR binding FN3 domain
notes: NEM and VC-MMAF conjugates
- First Scan Tm [1]: 70 °C
- Second Scan Tm [1]: 70 °C
- Percent monomer [2]: 97%
- IC50 [3]: 0.73 nM

B12: I45C: cysteine variant of P54AR4-83v2 (SEQ ID NOS: 201 and 239); NEM and VC-MMAF conjugates (conjugate)
chain: B4 chain with C31S, I46C
modifications: NEM or vcMMAF conjugate; EGFR binding FN3 domain
notes: NEM and VC-MMAF conjugates
- First Scan Tm [1]: 69 °C
- Second Scan Tm [1]: 68 °C
- Percent monomer [2]: 97%
- IC50 [3]: 0.63 nM

B13: T59C: cysteine variant of P54AR4-83v2 (SEQ ID NOS: 206 and 244); NEM and VC-MMAF conjugates (conjugate)
chain: B4 chain with C31S, T60C
modifications: NEM or vcMMAF conjugate; EGFR binding FN3 domain
notes: NEM and VC-MMAF conjugates
- First Scan Tm [1]: 67 °C
- Second Scan Tm [1]: 67 °C
- Percent monomer [2]: 100%
- IC50 [3]: 0.44 nM

B14: S70C: cysteine variant of P54AR4-83v2 (SEQ ID NOS: 211 and 249); NEM and VC-MMAF conjugates (conjugate)
chain: B4 chain with C31S, S71C
modifications: NEM or vcMMAF conjugate; EGFR binding FN3 domain
notes: NEM and VC-MMAF conjugates
- First Scan Tm [1]: 73 °C
- Second Scan Tm [1]: 72 °C
- Percent monomer [2]: 100%
- IC50 [3]: 1.14 nM

B15: K62C: cysteine variant of P54AR4-83v2 (SEQ ID 208 and 246); NEM and VC-MMAF conjugates (conjugate)
chain: B4 chain with C31S, K63C
modifications: NEM or vcMMAF conjugate; EGFR binding FN3 domain
notes: NEM and VC-MMAF conjugates
- First Scan Tm [1]: 65 °C
- Second Scan Tm [1]: 65 °C
- Percent monomer [2]: 95%
- IC50 [3]: 1.25 nM

B16: L47C: cysteine variant of P54AR4-83v2 (SEQ ID NOS: 202 and 240); NEM and VC-MMAF conjugates (conjugate)
chain: B4 chain with C31S, L48C
modifications: NEM or vcMMAF conjugate; EGFR binding FN3 domain
notes: NEM and VC-MMAF conjugates
- First Scan Tm [1]: 67 °C
- Second Scan Tm [1]: 67 °C
- Percent monomer [2]: 100%
- IC50 [3]: 1.03 nM

B17: V41C: cysteine variant of P54AR4-83v2 (SEQ ID NOS: 200 and 238); NEM and VC-MMAF conjugates (conjugate)
chain: B4 chain with C31S, V42C
modifications: NEM or vcMMAF conjugate; EGFR binding FN3 domain
notes: NEM and VC-MMAF conjugates
- First Scan Tm [1]: 71 °C
- Second Scan Tm [1]: 71 °C
- Percent monomer [2]: 98%
- IC50 [3]: 1.13 nM
